Our source for the Kd values is patent US20240390508A1 (Takeda / Millennium, published 2024).

Sequences and labels used below:
B1: peptide-HDO conjugate of Example 43 (first nucleic acid strand A2, second nucleic acid strand C42) (peptide)
peptide: AVFVWNYYIIRRYYC
modifications: MeF at 3, MeY at 14 (N-methyl); thioether ring from N-terminal chloroacetyl-Ala to Cys 15; C-terminal Gly-KN3-NH2, azide joined to BCN on the oligonucleotide
notes: also called A2/C42
B2: peptide-HDO conjugate of Example 20 (first nucleic acid strand A1, second nucleic acid strand C20) (peptide)
peptide: AVFVWNYYIIRRYYC
modifications: MeF at 3, MeY at 14 (N-methyl); thioether ring from N-terminal chloroacetyl-Ala to Cys 15; C-terminal Gly-KN3-NH2, azide joined to BCN on the oligonucleotide
notes: also called A1/C20
B3: peptide-HDO conjugate of Example 15 (first nucleic acid strand A2, second nucleic acid strand C15) (peptide)
peptide: AVFVWNYYIIRRYYC
modifications: MeF at 3, MeY at 14 (N-methyl); thioether ring from N-terminal chloroacetyl-Ala to Cys 15; C-terminal Gly-KN3-NH2, azide joined to BCN on the oligonucleotide
notes: also called A2/C15
B4: peptide-HDO conjugate of Example 16 (first nucleic acid strand A2, second nucleic acid strand C16) (peptide)
peptide: AVFVWNYYIIRRYYC
modifications: MeF at 3, MeY at 14 (N-methyl); thioether ring from N-terminal chloroacetyl-Ala to Cys 15; C-terminal Gly-KN3-NH2, azide joined to BCN on the oligonucleotide
notes: also called A2/C16
B5: peptide-HDO conjugate of Example 27 (first nucleic acid strand A1, second nucleic acid strand C27) (peptide)
peptide: AVFVWNYYIIRRYYC
modifications: MeF at 3, MeY at 14 (N-methyl); thioether ring from N-terminal chloroacetyl-Ala to Cys 15; C-terminal Gly-KN3-NH2, azide joined to BCN on the oligonucleotide
notes: also called A1/C27
B6: peptide-HDO conjugate of Example 44 (first nucleic acid strand A1, second nucleic acid strand C44) (peptide)
peptide: AVFVWNYYIIRRYYC
modifications: MeF at 3, MeY at 14 (N-methyl); thioether ring from N-terminal chloroacetyl-Ala to Cys 15; C-terminal Gly-KN3-NH2, azide joined to BCN on the oligonucleotide
notes: also called A1/C44
B7: peptide-HDO conjugate of Example 13 (first nucleic acid strand A2, second nucleic acid strand C13) (peptide)
peptide: AVFVWNYYIIRRYYC
modifications: MeF at 3, MeY at 14 (N-methyl); thioether ring from N-terminal chloroacetyl-Ala to Cys 15; C-terminal Gly-KN3-NH2, azide joined to BCN on the oligonucleotide
notes: also called A2/C13
B8: peptide-HDO conjugate of Example 4 (first nucleic acid strand A1, second nucleic acid strand C4) (peptide)
peptide: AVFVWNYYIIRRYYC
modifications: MeF at 3, MeY at 14 (N-methyl); thioether ring from N-terminal chloroacetyl-Ala to Cys 15; C-terminal Gly-KN3-NH2, azide joined to BCN on the oligonucleotide
notes: also called A1/C4
B9: Y14-PMO conjugate of Example 61 (peptide)
peptide: AVFVWNYYIIRRYYC
chain: KKKG
modifications: not fully specified; N-terminal 4-pentynoyl-AEEA; ivDde groups on the three Lys removed with hydrazine; C-terminal Gly coupled to PMO A4; MeF at 3, MeY at 14 (N-methyl); thioether ring from N-terminal chloroacetyl-Ala to Cys 15; C-terminal Gly-KN3-NH2, azide joined by copper-catalysed click to the 4-pentynoyl group of the linker …
B10: peptide-HDO conjugate of Example 48 (first nucleic acid strand A2, second nucleic acid strand C47) (peptide)
peptide: AVFVWNYYIIRRYYC
modifications: MeF at 3, MeY at 14 (N-methyl); thioether ring from N-terminal chloroacetyl-Ala to Cys 15; C-terminal Gly-KN3-NH2, azide joined to BCN on the oligonucleotide
notes: also called A2/C47
B11: peptide-HDO conjugate of Example 10 (first nucleic acid strand A2, second nucleic acid strand C10) (peptide)
peptide: AVFVWNYYIIRRYYC
modifications: MeF at 3, MeY at 14 (N-methyl); thioether ring from N-terminal chloroacetyl-Ala to Cys 15; C-terminal Gly-KN3-NH2, azide joined to BCN on the oligonucleotide
notes: also called A2/C10
B12: Y6-HDO conjugate of Example 1 (compound A1 annealed with compound C1) (peptide)
peptide: AVFVWNYYIIRRYYC
modifications: MeF at 3, MeY at 14 (N-methyl); thioether ring from N-terminal chloroacetyl-Ala to Cys 15; C-terminal Gly-KN3-NH2, azide joined to BCN on the oligonucleotide
notes: also called A1/C1
B13: peptide-HDO conjugate of Example 33 (first nucleic acid strand A1, second nucleic acid strand C33) (peptide)
peptide: AVFVWNYYIIRRYYC
modifications: MeF at 3, MeY at 14 (N-methyl); thioether ring from N-terminal chloroacetyl-Ala to Cys 15; C-terminal Gly-KN3-NH2, azide joined to BCN on the oligonucleotide
notes: also called A1/C33
B14: peptide-HDO conjugate of Example 29 (first nucleic acid strand A1, second nucleic acid strand C29) (peptide)
peptide: AVFVWNYYIIRRYYC
modifications: MeF at 3, MeY at 14 (N-methyl); thioether ring from N-terminal chloroacetyl-Ala to Cys 15; C-terminal Gly-KN3-NH2, azide joined to BCN on the oligonucleotide
notes: also called A1/C29
B15: peptide-HDO conjugate of Example 53 (first nucleic acid strand A2, second nucleic acid strand C50) (peptide)
peptide: AVFVWNYYIIRRYYC
modifications: MeF at 3, MeY at 14 (N-methyl); thioether ring from N-terminal chloroacetyl-Ala to Cys 15; C-terminal Gly-PEG12c-KN3-NH2, azide joined to BCN on the oligonucleotide
notes: also called A2/C50
B16: peptide-HDO conjugate of Example 55 (first nucleic acid strand A4, second nucleic acid strand C55) (peptide)
peptide: AVFVWNYYIIRRYYC
modifications: not fully specified; MeF at 3, MeY at 14 (N-methyl); thioether ring from N-terminal chloroacetyl-Ala to Cys 15; C-terminal Gly-KN3-NH2, azide joined to BCN on the oligonucleotide
notes: also called A4/C55
B17: peptide-HDO conjugate of Example 45 (first nucleic acid strand A1, second nucleic acid strand C45) (peptide)
peptide: AVFVWNYYIIRRYYC
modifications: MeF at 3, MeY at 14 (N-methyl); thioether ring from N-terminal chloroacetyl-Ala to Cys 15; C-terminal Gly-KN3-NH2, azide joined to BCN on the oligonucleotide
notes: also called A1/C45
B18: peptide-HDO conjugate of Example 41 (first nucleic acid strand A2, second nucleic acid strand C33) (peptide)
peptide: AVFVWNYYIIRRYYC
modifications: MeF at 3, MeY at 14 (N-methyl); thioether ring from N-terminal chloroacetyl-Ala to Cys 15; C-terminal Gly-KN3-NH2, azide joined to BCN on the oligonucleotide
notes: also called A2/C33
B19: peptide-HDO conjugate of Example 31 (first nucleic acid strand A1, second nucleic acid strand C31) (peptide)
peptide: AVFVWNYYIIRRYYC
modifications: MeF at 3, MeY at 14 (N-methyl); thioether ring from N-terminal chloroacetyl-Ala to Cys 15; C-terminal Gly-KN3-NH2, azide joined to BCN on the oligonucleotide
notes: also called A1/C31
B20: peptide-HDO conjugate of Example 9 (first nucleic acid strand A1, second nucleic acid strand C9) (peptide)
peptide: AVFVWNYYIIRRYYC
modifications: not fully specified; MeF at 3, MeY at 14 (N-methyl); thioether ring from N-terminal chloroacetyl-Ala to Cys 15; C-terminal Gly-KN3-NH2, azide joined to BCN on the oligonucleotide
notes: also called A1/C9
B21: peptide-HDO conjugate of Example 24 (first nucleic acid strand A2, second nucleic acid strand C19) (peptide)
peptide: AVFVWNYYIIRRYYC
modifications: MeF at 3, MeY at 14 (N-methyl); thioether ring from N-terminal chloroacetyl-Ala to Cys 15; C-terminal Gly-KN3-NH2, azide joined to BCN on the oligonucleotide
notes: also called A2/C19
B22: peptide-HDO conjugate of Example 28 (first nucleic acid strand A1, second nucleic acid strand C28) (peptide)
peptide: AVFVWNYYIIRRYYC
modifications: MeF at 3, MeY at 14 (N-methyl); thioether ring from N-terminal chloroacetyl-Ala to Cys 15; C-terminal Gly-KN3-NH2, azide joined to BCN on the oligonucleotide
notes: also called A1/C28
B23: peptide-HDO conjugate of Example 26 (first nucleic acid strand A1, second nucleic acid strand C26) (peptide)
peptide: AVFVWNYYIIRRYYC
modifications: MeF at 3, MeY at 14 (N-methyl); thioether ring from N-terminal chloroacetyl-Ala to Cys 15; C-terminal Gly-KN3-NH2, azide joined to BCN on the oligonucleotide
notes: also called A1/C26
B24: peptide-HDO conjugate of Example 25 (first nucleic acid strand A2, second nucleic acid strand C20) (peptide)
peptide: AVFVWNYYIIRRYYC
modifications: MeF at 3, MeY at 14 (N-methyl); thioether ring from N-terminal chloroacetyl-Ala to Cys 15; C-terminal Gly-KN3-NH2, azide joined to BCN on the oligonucleotide
notes: also called A2/C20
B25: peptide-HDO conjugate of Example 36 (first nucleic acid strand A2, second nucleic acid strand C28) (peptide)
peptide: AVFVWNYYIIRRYYC
modifications: MeF at 3, MeY at 14 (N-methyl); thioether ring from N-terminal chloroacetyl-Ala to Cys 15; C-terminal Gly-KN3-NH2, azide joined to BCN on the oligonucleotide
notes: also called A2/C28
B26: peptide-HDO conjugate of Example 42 (first nucleic acid strand A1, second nucleic acid strand C42) (peptide)
peptide: AVFVWNYYIIRRYYC
modifications: MeF at 3, MeY at 14 (N-methyl); thioether ring from N-terminal chloroacetyl-Ala to Cys 15; C-terminal Gly-KN3-NH2, azide joined to BCN on the oligonucleotide
notes: also called A1/C42

The target of this experiment is T1, human transferrin receptor (hTfR) (human, UniProt P02786 89-760, limits assumed).
T1 construct: 0.5 uM hTfR solution immobilised on a Ni-NTA chip with EDC/NHS; source and construct are not described; also called human TfR
T1 sequence (P02786 89-760 limits assumed): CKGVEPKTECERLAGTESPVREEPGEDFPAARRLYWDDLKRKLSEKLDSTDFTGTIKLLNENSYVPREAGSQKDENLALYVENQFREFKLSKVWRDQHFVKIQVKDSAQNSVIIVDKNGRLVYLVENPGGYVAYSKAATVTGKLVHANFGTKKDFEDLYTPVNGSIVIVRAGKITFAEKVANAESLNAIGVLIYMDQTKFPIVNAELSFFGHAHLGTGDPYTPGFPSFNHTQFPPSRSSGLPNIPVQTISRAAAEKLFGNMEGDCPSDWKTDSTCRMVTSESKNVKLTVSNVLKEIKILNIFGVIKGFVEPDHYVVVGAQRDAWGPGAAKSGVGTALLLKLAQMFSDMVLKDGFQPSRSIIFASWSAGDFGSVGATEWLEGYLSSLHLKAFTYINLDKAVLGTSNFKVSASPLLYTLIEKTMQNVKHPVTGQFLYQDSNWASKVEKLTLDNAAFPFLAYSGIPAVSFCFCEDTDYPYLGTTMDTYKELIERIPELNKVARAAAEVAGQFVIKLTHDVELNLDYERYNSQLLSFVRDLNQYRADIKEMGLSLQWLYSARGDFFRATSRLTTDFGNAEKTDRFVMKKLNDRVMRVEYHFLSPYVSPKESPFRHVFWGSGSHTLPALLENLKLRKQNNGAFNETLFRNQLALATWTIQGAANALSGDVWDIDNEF
The experiment in a line: SPR, hTfR immobilised on NTA chip, single cycle kinetics; A = KD less than 100 nM. How it is done: The various synthesized peptide-nucleic acid conjugates were tested for intermolecular interaction by surface plasmon resonance (SPR) of the peptide-nucleic acid conjugate with transferrin receptor (hTfR) using the method shown below. The specific test method is shown below.
NTA sensor chip (Global Life Science Technologies Japan Co., Ltd.) was inserted into Biacore T200 (Global Life Science Technologies Japan Co., Ltd.), prime operation was performed three times with running buffer: 10 mM HEPES pH 8.0 (Nacalai Tesque Co., Ltd.), 150 mM NaCl (Nacalai Tesque Co., Ltd.), 0.05% Tween 20 (Nacalai Tesque Co., Ltd.), 0.1% BSA (SIGMA-ALDRICH), and 1.0% DMSO (FUJIFILM Wako Pure Chemical Corporation), and equilibrated at a flow rate of 30 μL/min. 350 mM EDTA solution was reacted for 60 seconds at a flow rate of 10 μL/min, 0.5 mM NiCl₂ solution (Kishida Chemical) was reacted for 60 seconds at a flow rate of 10 μL/min, and the NTA sensor chip was washed with 3 mM EDTA solution (Nacalai Tesque Co., Ltd.) for 60 seconds at a flow rate of 10 μL/min. After mixing 50 μL each of 60 mM EDC solution (Global Life Science Technologies Japan Co., Ltd.) and 650 mM NHS solution (Global Life Science Technologies Japan Co., Ltd.), the mixture was reacted for 420 seconds at a flow rate of 10 μL/min. 150 μL of a 0.5 μM hTfR solution was prepared by diluting with a running buffer and reacted for 300 seconds at a flow rate of 10 μL/min to immobilize hTfR on the NTA sensor chip. After immobilization, capping was performed by reacting with a 1.0 M ethanolamine aqueous solution (Global Life Science Technologies Japan Co., Ltd.) at a flow rate of 10 μL/min for 420 seconds. A peptide-nucleic acid conjugate solution adjusted to 10 mM in DMSO solution was diluted with running buffer to a final concentration of […] peptide-nucleic acid conjugate solution, and 100 nM, 50 nM, 25 nM, 10 nM, 5 nM peptide-nucleic acid conjugate solutions were prepared. Using the aforementioned samples, the kinetics of the peptide against hTfR was obtained by SPR measurement.
The kinetics evaluation model was Single Cycle Kinetics, and curve fitting was performed using Biacore T200 Evaluation Software Version 3.0 (Global Life Science Technologies Japan Co., Ltd.).
In general terms: In SPR one partner is held on a chip, and binding of the other changes the refractive index at the surface.
As for B1, the Kd was < 100 nM. Next, B2: < 100 nM; B3: < 100 nM. Take B4: the Kd is < 100 nM. Next, B5: < 100 nM; B6: < 100 nM. Next, B7: < 100 nM; B8: < 100 nM. The value for B9 was < 100 nM; that for B10 was < 100 nM; that for B11 was < 100 nM. Take B12: the equilibrium dissociation constant (Kd) was < 100 nM. Next, B13: < 100 nM. Next, B14: < 100 nM.

For the molecule B15, the dissociation constant Kd was < 100 nM. The value for B16 was < 100 nM.

With B17, the Kd was < 100 nM. In the case of B18, the Kd is < 100 nM. Regarding B19, the Kd is < 100 nM.

For the molecule B20, the Kd was < 100 nM. The value for B21 was < 100 nM; that for B22 was < 100 nM; that for B23 was < 100 nM. Next, B24: < 100 nM; B25: < 100 nM; B26: < 100 nM.

One may read the Kd as the concentration at which binding is half-saturated. High values mean lower affinity, low ones higher affinity.
